ChEMBL document CHEMBL2073894, “Localization of organic anion transporting polypeptide 4 (Oatp4) in rat liver and comparison of its substrate specificity with Oatp1, Oatp2 and Oatp3” (Pflugers Arch, 2001)

T1: Solute carrier organic anion transporter family member 1A5 (Oatp1a5) (Rattus norvegicus, UniProt O88397)
T1 sequence (O88397 whole entry): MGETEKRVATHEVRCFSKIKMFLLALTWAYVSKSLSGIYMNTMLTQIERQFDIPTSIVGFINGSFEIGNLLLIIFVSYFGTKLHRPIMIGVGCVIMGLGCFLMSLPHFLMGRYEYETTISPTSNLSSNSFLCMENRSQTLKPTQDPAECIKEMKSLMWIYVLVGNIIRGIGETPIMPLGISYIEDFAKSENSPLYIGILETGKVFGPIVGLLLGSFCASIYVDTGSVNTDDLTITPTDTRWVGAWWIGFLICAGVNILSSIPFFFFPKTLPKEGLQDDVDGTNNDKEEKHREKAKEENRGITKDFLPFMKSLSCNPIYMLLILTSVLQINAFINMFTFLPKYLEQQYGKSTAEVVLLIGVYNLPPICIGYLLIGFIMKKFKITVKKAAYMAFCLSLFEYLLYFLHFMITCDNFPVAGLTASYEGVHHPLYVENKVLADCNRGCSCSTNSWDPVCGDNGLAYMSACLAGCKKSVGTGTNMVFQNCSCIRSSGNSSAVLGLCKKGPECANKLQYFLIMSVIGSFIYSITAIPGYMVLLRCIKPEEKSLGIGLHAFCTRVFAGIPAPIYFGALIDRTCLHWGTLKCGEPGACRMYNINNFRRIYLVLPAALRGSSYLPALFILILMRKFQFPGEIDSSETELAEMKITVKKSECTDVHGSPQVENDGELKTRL

T2: Solute carrier organic anion transporter family member 1B2 (Rattus norvegicus, UniProt Q9QZX8)
T2 sequence (Q9QZX8 whole entry): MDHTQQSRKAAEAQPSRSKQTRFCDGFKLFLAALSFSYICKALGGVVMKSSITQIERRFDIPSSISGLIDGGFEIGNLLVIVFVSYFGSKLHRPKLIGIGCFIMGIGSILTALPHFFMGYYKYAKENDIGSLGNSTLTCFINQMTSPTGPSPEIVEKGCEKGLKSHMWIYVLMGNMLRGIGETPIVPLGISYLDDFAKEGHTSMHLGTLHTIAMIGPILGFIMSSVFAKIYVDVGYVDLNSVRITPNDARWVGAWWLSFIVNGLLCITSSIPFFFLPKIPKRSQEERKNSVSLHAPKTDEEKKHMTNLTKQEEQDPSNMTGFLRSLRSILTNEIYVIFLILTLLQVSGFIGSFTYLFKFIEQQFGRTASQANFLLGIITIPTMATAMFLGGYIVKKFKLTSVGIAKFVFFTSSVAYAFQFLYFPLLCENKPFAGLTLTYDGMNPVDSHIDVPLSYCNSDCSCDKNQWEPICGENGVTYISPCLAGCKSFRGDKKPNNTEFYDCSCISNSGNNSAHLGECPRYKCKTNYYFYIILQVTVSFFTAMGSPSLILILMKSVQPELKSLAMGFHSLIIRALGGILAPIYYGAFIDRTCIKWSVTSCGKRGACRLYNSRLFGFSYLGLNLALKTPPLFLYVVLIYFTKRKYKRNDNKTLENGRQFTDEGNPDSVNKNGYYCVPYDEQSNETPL

T3: Solute carrier organic anion transporter family member 1A5 (Rattus norvegicus, UniProt O88397)
T3 sequence (O88397 whole entry): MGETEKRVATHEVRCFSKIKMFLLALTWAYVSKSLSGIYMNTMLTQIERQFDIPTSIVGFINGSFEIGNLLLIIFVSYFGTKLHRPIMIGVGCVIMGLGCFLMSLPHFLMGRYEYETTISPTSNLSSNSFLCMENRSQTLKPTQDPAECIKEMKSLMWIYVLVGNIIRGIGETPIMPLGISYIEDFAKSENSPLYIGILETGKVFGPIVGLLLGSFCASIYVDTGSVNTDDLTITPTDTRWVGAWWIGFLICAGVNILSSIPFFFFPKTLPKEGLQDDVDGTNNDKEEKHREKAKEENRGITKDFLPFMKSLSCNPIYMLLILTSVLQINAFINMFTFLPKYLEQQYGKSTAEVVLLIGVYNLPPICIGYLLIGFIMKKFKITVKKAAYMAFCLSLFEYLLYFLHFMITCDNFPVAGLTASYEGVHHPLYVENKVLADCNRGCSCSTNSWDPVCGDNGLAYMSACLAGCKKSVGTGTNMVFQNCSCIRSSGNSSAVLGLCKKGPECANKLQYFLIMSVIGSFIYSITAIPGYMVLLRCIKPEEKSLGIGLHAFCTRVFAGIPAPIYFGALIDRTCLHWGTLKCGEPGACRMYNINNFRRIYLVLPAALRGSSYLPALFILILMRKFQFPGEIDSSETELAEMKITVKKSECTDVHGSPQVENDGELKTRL

T4: Solute carrier organic anion transporter family member 1A4 (Rattus norvegicus, UniProt O35913)
T4 sequence (O35913 whole entry): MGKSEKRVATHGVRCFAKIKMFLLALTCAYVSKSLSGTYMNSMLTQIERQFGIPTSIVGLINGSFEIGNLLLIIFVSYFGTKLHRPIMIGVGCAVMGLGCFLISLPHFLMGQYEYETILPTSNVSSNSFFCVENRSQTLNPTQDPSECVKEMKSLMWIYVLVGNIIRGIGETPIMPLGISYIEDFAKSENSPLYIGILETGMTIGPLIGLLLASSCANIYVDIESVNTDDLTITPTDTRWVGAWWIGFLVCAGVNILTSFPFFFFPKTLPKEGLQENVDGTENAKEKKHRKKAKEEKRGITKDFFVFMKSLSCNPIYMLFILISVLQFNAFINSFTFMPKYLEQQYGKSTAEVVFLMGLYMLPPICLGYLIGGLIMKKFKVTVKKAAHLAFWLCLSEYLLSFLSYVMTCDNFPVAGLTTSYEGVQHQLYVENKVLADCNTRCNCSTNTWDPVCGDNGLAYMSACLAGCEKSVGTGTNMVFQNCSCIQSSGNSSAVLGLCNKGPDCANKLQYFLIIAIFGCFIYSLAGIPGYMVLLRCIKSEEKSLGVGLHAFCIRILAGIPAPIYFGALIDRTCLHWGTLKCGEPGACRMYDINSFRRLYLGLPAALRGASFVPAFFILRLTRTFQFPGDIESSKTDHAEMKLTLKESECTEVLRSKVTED

T5: Solute carrier organic anion transporter family member 1A1 (Rattus norvegicus, UniProt P46720)
T5 sequence (P46720 whole entry): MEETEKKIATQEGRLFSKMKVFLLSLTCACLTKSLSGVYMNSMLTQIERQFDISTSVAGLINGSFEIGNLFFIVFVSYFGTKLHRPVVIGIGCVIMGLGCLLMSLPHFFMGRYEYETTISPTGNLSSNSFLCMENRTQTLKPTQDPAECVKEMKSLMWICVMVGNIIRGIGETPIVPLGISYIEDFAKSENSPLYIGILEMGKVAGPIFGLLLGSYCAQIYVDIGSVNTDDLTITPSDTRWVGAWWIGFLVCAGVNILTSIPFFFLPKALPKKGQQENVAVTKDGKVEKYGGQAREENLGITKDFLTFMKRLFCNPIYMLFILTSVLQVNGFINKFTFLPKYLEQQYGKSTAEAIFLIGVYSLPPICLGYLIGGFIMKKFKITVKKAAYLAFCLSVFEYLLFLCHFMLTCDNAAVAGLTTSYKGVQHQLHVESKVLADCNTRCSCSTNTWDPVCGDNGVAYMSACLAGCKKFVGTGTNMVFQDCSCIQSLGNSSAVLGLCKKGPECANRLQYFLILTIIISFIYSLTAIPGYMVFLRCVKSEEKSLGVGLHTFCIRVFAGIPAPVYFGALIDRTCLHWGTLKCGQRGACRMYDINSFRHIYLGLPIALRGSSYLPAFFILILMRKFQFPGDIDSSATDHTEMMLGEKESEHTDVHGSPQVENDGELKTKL


Legend:
[1] = biological target: T1, Solute carrier organic anion transporter family member 1A5 (Oatp1a5); test: (§1) TP_TRANSPORTER: uptake in Xenopus laevis oocytes; format: functional, cell-based, Oocyte; conditions: Xenopus laevis oocytes
[2] = biological target: T2, Solute carrier organic anion transporter family member 1B2; test: as §1; format: functional, cell-based; conditions: oocyte
[3] = biological target: T3, Solute carrier organic anion transporter family member 1A5; test: as §1; format: functional, cell-based, Oocyte; conditions: oocyte
[4] = biological target: T4, Solute carrier organic anion transporter family member 1A4; test: as §1; format: functional, cell-based; conditions: oocyte
[5] = biological target: T5, Solute carrier organic anion transporter family member 1A1; test: as §1; format: functional, cell-based; conditions: oocyte
[6] = substrate: [H][C@@]12CC=C3C[C@@H](OS(=O)(=O)O)CC[C@]3(C)[C@@]1([H])CC[C@]1(C)C(=O)CC[C@@]21[H]; test: as §1; format: functional, cell-based, Oocyte
[7] = substrate: C[C@]12CC[C@@H]3c4ccc(O)cc4CC[C@H]3[C@@H]1CC[C@@H]2O[C@@H]1O[C@H](C(=O)O)[C@@H](O)[C@H](O)[C@H]1O; test: as §1; format: functional, cell-based, Oocyte
[8] = substrate: CC(C)C[C@@H]1NC(=O)[C@@H](C(C)C)NC(=O)[C@@H]2CCCN2C(=O)[C@@H](CC(=O)O)NC(=O)[C@@H](Cc2c[nH]c3ccccc23)NC1=O; test: as §1; format: functional, cell-based, Oocyte
[9] = substrate: C[C@]12CC[C@@H]3c4ccc(OS(=O)(=O)O)cc4CC[C@H]3[C@@H]1CCC2=O; test: as §1; format: functional, cell-based, Oocyte
[10] = substrate: CC1(C)SSC(C)(C)[C@@H](NC(=O)[C@@H](N)Cc2ccc(O)cc2)C(=O)NCC(=O)N[C@@H](Cc2ccccc2)C(=O)N[C@H]1C(=O)O; test: as §1; format: functional, cell-based, Oocyte
[11] = substrate: CCCCC[C@H](O)/C=C/[C@H]1[C@H](O)CC(=O)[C@@H]1C/C=C\CCCC(=O)O; test: as §1; format: functional, cell-based, Oocyte
[12] = substrate: O=C1OC(c2ccc(O)c(S(=O)(=O)O)c2)(c2ccc(O)c(S(=O)(=O)O)c2)c2c(Br)c(Br)c(Br)c(Br)c21; test: as §1; format: functional, cell-based, Oocyte
[13] = substrate: CCCCC/C=C\C\C=C/C=C/C=C/[C@@H](SC[C@@H](NC(=O)CC[C@H](N)C(=O)O)C(=O)NCC(=O)O)[C@@H](O)CCCC(=O)O; test: as §1; format: functional, cell-based, Oocyte

Molecule | Activity [2] | Activity [3] | Km [6] [µM] | Km [7] [µM] | Km [8] [µM] | Km [9] [µM] | Km [10] [µM] | Km [11] [µM] | other results
C[C@@H]1O[C@@H](O[C@H]2C[C@@H](O)[C@]3(CO)[C@H]4[C@H](O)C[C@]5(C)[C@@H](C6=CC(=O)OC6)CC[C@]5(O)[C@@H]4CC[C@]3(O)C2)[C@H](O)[C@H](O)[C@H]1O [OUABAIN] | is not a substrate [-] | – | – | – | – | – | – | – | Km [1]: 1570 µM
C=CC[N+]1([C@H]2C[C@H]3[C@@H]4CC[C@H]5C[C@H](O)[C@@H](N6CCOCC6)C[C@]5(C)[C@H]4CC[C@]3(C)[C@H]2OC(C)=O)CCCC1 [ROCURONIUM] | is not a substrate [-] | substrate [+] | – | – | – | – | – | – | –
CC[N+](CC)(CC)CC [TETRYLAMMONIUM] | is not a substrate [-] | is not a substrate [-] | – | – | – | – | – | – | Activity [4]: is not a substrate [-]; Activity [5]: is not a substrate [-]
Solute carrier organic anion transporter family member 1A5 (Rattus norvegicus) (protein) MGETEKRVATHEVRCFSKIKMFLLALTWAYVSKSLSGIYMNTMLTQIERQFDIPTSIVGFINGSFEIGNLLLIIFVSYFGTKLHRPIMIGVGCVIMGLGCFLMSLPHFLMGRYEYETTISPTSNLSSNSFLCMENRSQTLKPTQDPAECIKEMKSLMWIYVLVGNIIRGIGETPIMPLGISYIEDFAKSENSPLYIGILETGKVFGPIVGLLLGSFCASIYVDTGSVNTDDLTITPTDTRWVGAWWIGFLICAGVNILSSIPFFFFPKTLPKEGLQDDVDGTNNDKEEKHREKAKEENRGITKDFLPFMKSLSCNPIYMLLILTSVLQINAFINMFTFLPKYLEQQYGKSTAEVVLLIGVYNLPPICIGYLLIGFIMKKFKITVKKAAYMAFCLSLFEYLLYFLHFMITCDNFPVAGLTASYEGVHHPLYVENKVLADCNRGCSCSTNSWDPVCGDNGLAYMSACLAGCKKSVGTGTNMVFQNCSCIRSSGNSSAVLGLCKKGPECANKLQYFLIMSVIGSFIYSITAIPGYMVLLRCIKPEEKSLGIGLHAFCTRVFAGIPAPIYFGALIDRTCLHWGTLKCGEPGACRMYNINNFRRIYLVLPAALRGSSYLPALFILILMRKFQFPGEIDSSETELAEMKITVKKSECTDVHGSPQVENDGELKTRL | – | – | 162 | 39 | 417 | 268 | 137 | 35 | Km [12]: 8.3 µM
Solute carrier organic anion transporter family member 1B2 (Rattus norvegicus) (protein) MDHTQQSRKAAEAQPSRSKQTRFCDGFKLFLAALSFSYICKALGGVVMKSSITQIERRFDIPSSISGLIDGGFEIGNLLVIVFVSYFGSKLHRPKLIGIGCFIMGIGSILTALPHFFMGYYKYAKENDIGSLGNSTLTCFINQMTSPTGPSPEIVEKGCEKGLKSHMWIYVLMGNMLRGIGETPIVPLGISYLDDFAKEGHTSMHLGTLHTIAMIGPILGFIMSSVFAKIYVDVGYVDLNSVRITPNDARWVGAWWLSFIVNGLLCITSSIPFFFLPKIPKRSQEERKNSVSLHAPKTDEEKKHMTNLTKQEEQDPSNMTGFLRSLRSILTNEIYVIFLILTLLQVSGFIGSFTYLFKFIEQQFGRTASQANFLLGIITIPTMATAMFLGGYIVKKFKLTSVGIAKFVFFTSSVAYAFQFLYFPLLCENKPFAGLTLTYDGMNPVDSHIDVPLSYCNSDCSCDKNQWEPICGENGVTYISPCLAGCKSFRGDKKPNNTEFYDCSCISNSGNNSAHLGECPRYKCKTNYYFYIILQVTVSFFTAMGSPSLILILMKSVQPELKSLAMGFHSLIIRALGGILAPIYYGAFIDRTCIKWSVTSCGKRGACRLYNSRLFGFSYLGLNLALKTPPLFLYVVLIYFTKRKYKRNDNKTLENGRQFTDEGNPDSVNKNGYYCVPYDEQSNETPL | – | – | 5.3 | 32 | 13.8 | 37 | 22 | 13 | Km [13]: 6.5 µM
